Paper doi:10.1101/2021.11.02.466367
Several values for one entry are separate records, joined by “and”; a condition that tells them apart may be missing. Equal entries are not always repeated.

Columns and labels:
[1] = target: Csx28 (Prevotella buccae Type VI-B2 CRISPR-Cas accessory protein), recombinant, DDM-solubilised (Prevotella buccae ATCC 33574); test: cryo-EM structure
[2] = target: Csx28 (Prevotella buccae Type VI-B2 CRISPR-Cas accessory protein), recombinant, DDM-solubilised (Prevotella buccae ATCC 33574); test: SEC-MALS

“Csx28 (Prevotella buccae Type VI-B2 CRISPR-Cas accessory protein), recombinant, DDM-solubilised (natural protein)” was tested, and the stoichiometry N [1] was 8 and 16 and the stoichiometry N [2] was 8 and 16.
